Measurements taken from the supplement of paper PMC10567573.

B1: TOR1AIP2 (parent)
chain: HHVADAYTSSQKVSPIQIDGAGRT

Variants of: B1
Assay: protein stability index of a GFP-peptide fusion (GPS, HEK-293T) (PSI 1-6); higher = more stable
Conditions: c terminus: a fixed tail appended
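Also: lentivirally expressed fusions sorted by FACS into six bins by GFP to DsRed ratio, PSI derived from sequencing read proportions per bin multiplied by bin number.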

Protein stability index of substitutions, site by site:
S14: D 4.07, G 3.27, M 3.25, T 3.22, F 3.34, V 3.46, E 4.13, R 3.26, H 3.44
A6: F 2.69, M 3.46, I 3.67, D 4.19
P15: F 2.82, Y 2.55, N 3.47, E 3.82, A 3.66, M 3.25, S 3.41, H 3.08
I18: F 2.9, R 3.58, H 3.85, L 3.57, K 3.98, M 3.84, Y 2.97, G 3.47
H1: F 2.69, V 3.86, N 4.53, Q 4.15
V3: W 2.42, H 2.82, T 3.1, R 2.95, I 4.2, Q 2.63, Y 1.51
I16: V 4.05, S 3.78, T 4.13, C 3.31, W 2.59, M 3.38, L 3.6
H2: W 2.96, D 4.75, N 4.27, P 3.87, E 4.74, G 4.15, F 3.77
G22: K 3.72, W 2.46, M 3.32, E 3.93, D 3.99, A 3.58, N 3.25, C 3.6
T8: Q 3.85, A 4.09, E 4.38, P 4.38
A4: L 3.99, V 3.39, Q 3.67, Y 4.04, R 3.95
K12: I 3.13, D 3.88, S 3.77, G 3.48, L 3.24, M 3.4, T 3.59, H 3.54, F 2.47, Q 3.86
S10: W 2.37, Q 3.24, Y 2.94, D 4.33, G 3.81, K 3.46
D5: T 3.68, H 2.38
A21: R 3.55, F 3.18, C 3.48, E 3.32, Q 3.85, L 3.42, G 3.62, S 3.67, T 3.85
G20: T 3.48, Q 3.7, S 3.23, L 2.78, W 2.33, K 3.38
T24: W 2.97, N 3.97, V 3.51, H 3.38, P 3.46
R23: C 3.68, E 3.91, L 3.36, I 3.45, K 3.28, N 3.81
D19: E 3.43, Q 3.75, I 2.54, T 3.07, P 3.06, F 2.77, K 3.14, L 2.36
Y7: W 2.12, P 4.91, M 4.7, G 4.6, R 4.43, L 4.55, Q 4.5
V13: F 3.21, W 3.16, S 3.79, C 2.92, N 4.32, G 3.7
Q11: V 2.89, G 3.66, H 3, E 3.97, N 3.29, A 3.23, S 3.44, Y 2.96, T 3.6, K 3.56, D 4.26
Q17: P 3.93, W 2.31, M 2.99, N 3.64, A 3.55, F 3.05, Y 2.66, T 3.41, G 3.29, D 3.67
S9: Q 3.15, P 2.58, H 3.77, L 3.28, F 2.9, Y 3.78, C 1.95, E 3.11, T 2.82, A 2.91
